Laboratory results from the nanobody polyreactivity screen of Harvey et al. (2022).

Experiment: yeast display, Sf9 membrane polyspecificity reagent, FACS + sequencing; frameworks hold sequencing errors
Method in brief: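 Synthetic nanobody libraries on Saccharomyces cerevisiae BJ5465 were galactose-induced for 36–48 hours, stained 1 hour at 4 °C with 10% biotinylated, detergent-solubilized Sf9 membrane reagent and enriched on streptavidin microbeads. FACS then separated cells into low and high (top ~1%) gates by anti-HA (expression) and streptavidin (reagent binding) fluorescence. Genes were colony-PCR amplified, MiSeq 2 × 250 sequenced and CDR-length filtered. A clone's polyreactivity label is that of its gate of origin.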

Row | Sequence | polyreactivity (PSR sort gate)
1 | QVQLVESGGGLVQAGGSLRLSCAASGYIFLRNALGWYRQAPGKERELVAAIRRTGGSTYYADSVKGRFTISRDNAKNTVYLQMNSLKPEDTAVYYCAKRSYTGYEYWGQGTQVTVSS | low polyreactivity
2 | QVQLVESGGGLVQAGGSLRLSCAASGYIFPEYVMGWYRQAPGKERELVAVITWDGTSTYADSVKGRFTISRDNAKNTVYLQMNSLKPEDTAVYYCAADTNYYVDTAGYGDGLDSWGQGTQVTVSS | low polyreactivity
3 | QVQLVESGGGLVQAGGSLRLSCAASGYIFPGNAMGWYRQAPGKERELVAAISSRGGRTYYADSVKGRFTISRDNAKNTVYLQMNSLKPEDTAVYYCAKGGKVGSTLEYDYWGQGTQVTVSS | high polyreactivity
4 | QVQLVESGGGLVQAGGSLRLSCAASGYIFPTNAMGWYRQAPGKERELVAVITSGGSTYYADSVKGRFTISRDNAKNTVYLQMNSLKPEDNAVYYCAARYPGRYGIYRVLYGYWGQGTQVTVSS | high polyreactivity
5 | QVQLVESGGGLVQAGGSLRLSCAASGYIFPYYAMGWYRQAPGKERELVAAISRSGGGTYYADSVKGRFTISRDNAKNTVYLQMNSLKPEDTAVYYCNRRSGHVHEYDYWGQGTQVTVSS | low polyreactivity
6 | QVQLVESGGGLVQAGGSLRLSCAASGYIFQDYAMGWYRQAPAKERELVARISAGGGRTYYADSVKGRFTISRDNAKNTVYLQMISLKPEDTAVYYCAAPLSYYWVYIVRYGYDYWGQGTQVTVSS | low polyreactivity
7 | QVQLVESGGGLVQAGGSLRLSCAASGYIFRFNAMGWYRQAPGKERELVAVNTSGARTYYADSVKGRFTISRDNAKNTVYLQMNSLKPEDTAVYYCNAGARRYLYDYWGQGTQVTVSS | low polyreactivity
8 | QVQLVESGGGLVQAGGSLRLSCAASGYIFRGYVMGWYRQAPGKERELVAAITSSGGSTYYADSVKGRFTISRDNAKNTVYLQMISLKPEDTAVYYCAARGYSPHYYWGQGTQVTVSS | high polyreactivity
9 | QVQLVESGGGLVQAGGSLRLSCAASGYIFRVYAMGWYRQAPGKERELVAAISSGGSTYYADSVKGRFTISRDNAKNTVYLQMNSLKPEDTAVYYCAKAGLALYAFRDDYWGQGTQVTVSS | low polyreactivity
10 | QVQLVESGGGLVQAGGSLRLSCAASGYIFSGYAMGWYRQAPGKERELVAAISSNGGSTYYADSVKGRFTISRDNAKNTVYLQMNSLKPEDTAVYYCNRGLAARVGRGDYWGQGTQVTVSS | low polyreactivity
11 | QVQLVESGGGLVQAGGSLRLSCAASGYIFSHYAMAWYRQAPGKERELVAAISRNGGSTYYADSVKGRFTISRDNAKNTVYLQMNSLKPEDTSVYYCAVGWKYRYGYWGQGTQVTVSS | high polyreactivity
12 | QVQLVESGGGLVQAGGSLRLSCAASGYIFSVNAMGWYRQAPGKERELVAAIRGSGGSTFYADSVKGRFTISRDNAKNTVYLQMNSLKPEDTAVYYCAAYWRGRYDYWGQGTQVTVSS | low polyreactivity
13 | QVQLVESGGGLVQAGGSLRLSCAASGYIFSYNAMGWYRQAPGKERELVAAISRTGGSTNYADSVKGRFTISRDNAKNTVYLQMNSLKPEDTAVYYCAKRYRYPSWGEYGYWGQGTQVTVSS | high polyreactivity
14 | QVQLVESGGGLVQAGGSLRLSCAASGYIFTPYAMGWYRQAPGKERELVAAITGSGSSTYYADSVKGRFTISRDNAKNTVYLQMNSLKPEDTAGYYCAADSYGFYGYYYYELEYWGQGTQVTVSS | low polyreactivity
15 | QVQLVESGGGLVQAGGSLRLSCAASGYIFTYNALGWSRQAPGKDRELVAAISSGHGRTYYADSVKGRFTISRDHAQNTVDLEMNSLKPEDTAVYYCNASRVVYRQAYLYGYDYWGQGTQVTVSS | low polyreactivity
16 | QVQLVESGGGLVQAGGSLRLSCAASGYIFVFNTMGWYRQAPGKERELVASISWDAGSTYYADSVKGRFTISRDNAKNTVYLQMNSLKPEDTAVDYCNAGRIRSGSPDYWGQGTQVTVSS | low polyreactivity
17 | QVQLVESGGGLVQAGGSLRLSCAASGYIFVKNAMGWYRQEPGKERELVAAISSSGGSTYYADSVKGRFTISRDNAKNTVYLQMNSLKPEDTAVYYCNVYGSYTSVSRQSDWWPDYGYWGQGTQVTVSS | low polyreactivity
18 | QVQLVESGGGLVQAGGSLRLSCAASGYIFVRNAMGWYRQAPGKERELVAAISGSGGSTYYADSVKGRFTISRDNAKNTVYLQMNSLKPEDTAVYYFAADYATVTWRGIAYDYWGQGTQVSVSS | low polyreactivity
19 | QVQLVESGGGLVQAGGSLRLSCAASGYIFVRNAMGWYRQAPGKERELVAAISGSGGSTYYADSVKGRFTISRDNAKNTVYLQMNSLKPVDTAVYYCAADYATVTWRGIAYDYWGQGTQVTVSS | low polyreactivity
20 | QVQLVESGGGLVQAGGSLRLSCAASGYIFVRYAMGWYRQAPGKEREFVAAISSSGGSTRYADSVKGRFTISRDNAKNTVYLQMNSLKPEDTAVYYCAATRVARHGSPMYYWGQGTEVTVSS | high polyreactivity
21 | QVQLVESGGGLVQAGGSLRLSCAASGYIFVWYDMGWYRHAPGKERELVAAITWSGGSTYADSVKGRFTISRDNAKNTVYLQMNSLIPEDTAVDYCNADNNLDVYVDYGFNYWGQGTQVTVSS | low polyreactivity
22 | QVQLVESGGGLVQAGGSLRLSCAASGYIFYFNAMGWYRQAPGKEREVVAAITFSGGATYYADSVKGRFTISRDTAKNTVYLQMNSLKPEDTAVYYCAAASRRSGAYTFYRTTSGAYGYWGQGTQVTVSS | high polyreactivity

Row | Sequence | polyreactivity (PSR sort gate)
23 | QVQLVESGGGLVQAGGSLRLSCAASGYIFYGYVMGWYRQAPGKERELVAGITYSGGGGTHYADSVKGRFTISRDNAKNTVYLQMNSLKPEDTAVYYCATADPQLNRTYYSYGMDYWGQGTQVTVSS | low polyreactivity
24 | QVQLVESGGGLVQAGGSLRLSCAASGYIFYTYAMGWYRQAPGKERELVAGITGSGGSTYYADSVKGRFTISRDNAKNTVYLQMNSLKPEDTAVYYCANDIYQIGYRRYDSWGQGTQVTVSS | low polyreactivity
25 | QVQLVESGGGLVQAGGSLRLSCAASGYIIFGNAMGWYRQAPGKERELVAAIRWRGTSTYYADSVKGRFTISRDNAKNTVYLQMNSLKPEDTAVYYCAADVVRSNFYGTFLYDYDYWGQGTQVTVSS | low polyreactivity
26 | QVQLVESGGGLVQAGGSLRLSCAASGYIILLYAMGWYRQAPGKERELVAAISTRDGSTYYADSVKGRFTISRDNGKITVYLQMNSLNPEDTAVYYCATLYYYNYCGQGTQVTVSS | high polyreactivity
27 | QVQLVESGGGLVQAGGSLRLSCAASGYIIRGYVMGWYRQAPGKERELVAAITSRGDSTYYADSVKGRFTISRDNAKNTVYLQMNSLIPEDTAVYYCYFYFRRQYEHEYWGQGTQVTVSS | high polyreactivity
28 | QVQLVESGGGLVQAGGSLRLSCAASGYILGVYAMGWYRQAPGKERDLVASISRSGGSTYYADSVKGRFTISRDNAKNTVYLQMNSLKTEDSAVYYCSNRSRTAHFRLRYDYWGQGTQVTVSS | low polyreactivity
29 | QVQLVESGGGLVQAGGSLRLSCAASGYILHRNAMGWYRQAPGKERELVAVISWGGTSTYYADSVKGRFTISRDNAKNTVYLLMNSLKPEDTAVYYCNAKGWYYKYDYWGQGTQVNVSS | high polyreactivity
30 | QVQLVESGGGLVQAGGSLRLSCAASGYILRYYGLGWYRQAPGKERELVAAITRGVSTNYADSVKGRFSISRDNAKNTVYLKMNSLKPEDTAVYYCAAKYYPYSSLSKPWTMDYWGQGTQVTVSS | low polyreactivity
31 | QVQLVESGGGLVQAGGSLRLSCAASGYILTHYAMGWYRQAPGKERELVAAITRVGNSNYADSVKGRFTISRDNAKNTVYLQMNSLKPEDTAVYYCAADGVASLFGDPPTEFDYWGQGTQVTVSS | low polyreactivity
32 | QVQLVESGGGLVQAGGSLRLSCAASGYISRYNTMGWYRHAPGKERELVAAITWSGGSTYADSVKGRFTISRDNAKNTVYLQMNSLKQEDTAVYYCAAGAYIWDNYSYRWYDYWGQGTQVTVSS | high polyreactivity
33 | QVQLVESGGGLVQAGGSLRLSCAASGYIVDRNAMGWYRQAPGKERELVAAITKRGGITYYADSVKGRFTISRDNAKNTVYLQMNSLKPEDTAVYYCNALARSSRYDYWGQGTQVTVSS | low polyreactivity
34 | QVQLVESGGGLVQAGGSLRLSCAASGYIYQRNAMGWYRQAPGKERELVARINYRGGSFYADSVKGRCTISRDNAKNTGYLQMNSLKPEDTAVYYCAARTSGDMYSWGQGTQVTVSS | high polyreactivity
35 | QVQLVESGGGLVQAGGSLRLSCAASGYNFDDNAMGWYRQAPGKERELVATNYADSVKGRFTISRDNAKNTVYLQMKSLKPEDTAVYYCAKDVWQTYTDLDHWGQGTQVTVSS | low polyreactivity
36 | QVQLVESGGGLVQAGGSLRLSCAASGYNFNYAMGWYRQAPGKERELVAAISRRGGSTYYADSVKGRFTISRDNAKNTVYLQMNSLTPEDTAVYYCAARLPGYFGIGDYWGQGTQVTVSS | high polyreactivity
37 | QVQLVESGGGLVQAGGSLRLSCAASGYPFGYYGKGWYRQAPGKERELVAAISRSGGGSTYYADSVKGRFTISRENAKYTVYLQINSLKPEDTAVYYCNVSPGVWRSIPLYYNLRYGYWGQGTQVTVSS | low polyreactivity
38 | QVQLVESGGGLVQAGGSLRLSCAASGYTDYAMGWYRQAPGKERELVATITSGDNTNYADSVKGRFTISRDNAKNTVYLQMNSPQPEDTAVYYCAADRIGRYRPYIGYWGQGTQVTVSS | low polyreactivity
39 | QVQLVESGGGLVQAGGSLRLSCAASGYTFAIYAMGWYRQAPGKERELVAAITWNGGSTYYADSVKGRFTISRDNAKNTVFLQMNSLKPEDTAVYYCAADYWSGGYDYWGQGTQVTVSS | low polyreactivity
40 | QVQLVESGGGLVQAGGSLRLSCAASGYTFAPYVMGWYRPAPGKERELVARISNNGGSTYYADSVKGRFTISRDNAKNTVYLQMNSLKPEDTAVYYCAADVGLIYFRYYYWGQGTQVTVSS | low polyreactivity
41 | QVQLVESGGGLVQAGGSLRLSCAASGYTFASNAMGWYRQAPGKERELVAAITRGGSTNYADSVKGRFTISRDNAKNTVYLQMNSLKPEDTAVYYCAAPRYRHTRKGGYWGQGTQVTVSS | low polyreactivity
42 | QVQLVESGGGLVQAGGSLRLSCAASGYTFASYTLGWYRQAPGKERELVATISRGGGRTYYADSVKGRFTISRDNAKNTVYLQMNSLKPEDTAVYYCAARWWYYNGGRDYWGQGTQVTVSS | high polyreactivity
43 | QVQLVESGGGLVQAGGSLRLSCAASGYTFAYNAMGWYRQAPGKERELVAVITWSGDSTYYADSVKGRFTISRDNAKNTVYLQMNSLKPEDTAVYYCAAQVDRWKGREHDYWGQGTQVTVSS | low polyreactivity
